The results in this text go back to the supplement of paper PMC9112550, “Optimization of the antimicrobial peptide Bac7 by deep mutational scanning” (BMC Biology, 2022).

The data set has as its system Escherichia coli TOP10. Description: shrunken log2 fold change of peptide-encoding DNA abundance (4.5 h post-induction vs induction); higher = less antimicrobial activity (less host growth inhibition). The following applies: time post-induction: 4.5 h; library: site-saturation at positions 5, 18, 19, 20.
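Note: peptides expressed intracellularly from a pBAD plasmid library in pooled LB shake-flask culture, induced with 0.3% L-arabinose, DNA abundance read by NGS, three biological replicates, DESeq2 with apeglm shrinkage.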

Take RRIRWRPPRLPRPRPRPRNHPRP: the “shrunken log2 fold change” value was -0.141.

As to RRIRTRPPRLPRPRPRPRQFPRP, the “shrunken log2 fold change” value was -0.0836.

On to RRIRIRPPRLPRPRPRPPTQPRP, for which the “shrunken log2 fold change” value is 0.215.

In the case of RRIRFRPPRLPRPRPRPWIGPRP, the “shrunken log2 fold change” value is -0.398.

Regarding RRIRRRPPRLPRPRPRPWMKPRP, the “shrunken log2 fold change” value was -0.196.

For the sequence RRIRPRPPRLPRPRPRPSGIPRP, the “shrunken log2 fold change” value is -0.126.

For RRIRTRPPRLPRPRPRPIVLPRP, the “shrunken log2 fold change” value is -0.145.

As to RRIRQRPPRLPRPRPRPIVSPRP, the “shrunken log2 fold change” value is -0.0135.

In the case of RRIRERPPRLPRPRPRPHEKPRP, the “shrunken log2 fold change” value is -0.00663.

Regarding RRIRARPPRLPRPRPRPVTIPRP, the “shrunken log2 fold change” value is -0.207.

Consider RRIRLRPPRLPRPRPRPPQTPRP, for which the “shrunken log2 fold change” value was 0.0847.

RRIRTRPPRLPRPRPRPKCCPRP: the “shrunken log2 fold change” value is -0.133.

Consider RRIRQRPPRLPRPRPRPAAQPRP, for which the “shrunken log2 fold change” value was -0.00152.

Take RRIRSRPPRLPRPRPRPANAPRP: the “shrunken log2 fold change” value worked out at 0.438.

As for RRIRCRPPRLPRPRPRPKREPRP, the “shrunken log2 fold change” value amounted to 0.636.

As for RRIRMRPPRLPRPRPRPMPVPRP, the “shrunken log2 fold change” value turned out to be 0.064.

For the sequence RRIRARPPRLPRPRPRPSMPPRP, the “shrunken log2 fold change” value was -0.176.

For the sequence RRIRTRPPRLPRPRPRPRGQPRP, the “shrunken log2 fold change” value was determined as 0.411.

For the sequence RRIRWRPPRLPRPRPRPMSDPRP, the “shrunken log2 fold change” value was determined as 0.0237.

On to RRIRGRPPRLPRPRPRPYFFPRP, for which the “shrunken log2 fold change” value was 0.0463.

RRIRVRPPRLPRPRPRPFPIPRP: the “shrunken log2 fold change” value was -0.39.

Consider RRIRKRPPRLPRPRPRPAFMPRP, for which the “shrunken log2 fold change” value is 0.341.

Turning to RRIRARPPRLPRPRPRPEMWPRP, the “shrunken log2 fold change” value was determined as 1.21.

RRIRFRPPRLPRPRPRPKEQPRP: the “shrunken log2 fold change” value is -0.00277.

Turning to RRIRCRPPRLPRPRPRPNDHPRP, the “shrunken log2 fold change” value was -0.716.

As for RRIRARPPRLPRPRPRPASIPRP, the “shrunken log2 fold change” value was 0.0775.

As for RRIRMRPPRLPRPRPRPIAVPRP, the “shrunken log2 fold change” value is -0.015.

In the case of RRIRNRPPRLPRPRPRPTDMPRP, the “shrunken log2 fold change” value is -0.0588.

With RRIRRRPPRLPRPRPRPWLKPRP, the “shrunken log2 fold change” value is 0.127.

Take RRIRGRPPRLPRPRPRPMMSPRP: the “shrunken log2 fold change” value came out at 0.136.

For RRIRRRPPRLPRPRPRPIVFPRP, the “shrunken log2 fold change” value stood at 0.00406.

In the case of RRIRRRPPRLPRPRPRPQAIPRP, the “shrunken log2 fold change” value was -0.0149.

Consider RRIRFRPPRLPRPRPRPLMLPRP, for which the “shrunken log2 fold change” value was -0.282.

On to RRIRIRPPRLPRPRPRPVFDPRP, for which the “shrunken log2 fold change” value was -0.371.

With RRIRHRPPRLPRPRPRPQHHPRP, the “shrunken log2 fold change” value was -0.87.

RRIRLRPPRLPRPRPRPHYDPRP: the “shrunken log2 fold change” value was -0.0502.

On to RRIRMRPPRLPRPRPRPSNEPRP, for which the “shrunken log2 fold change” value stood at 0.287.

Take RRIRERPPRLPRPRPRPGYFPRP: the “shrunken log2 fold change” value was -0.0348.

Take RRIRVRPPRLPRPRPRPDWKPRP: the “shrunken log2 fold change” value was -0.0682.

Regarding RRIRARPPRLPRPRPRPFGRPRP, the “shrunken log2 fold change” value was determined as 0.547.

In the case of RRIRKRPPRLPRPRPRPDKMPRP, the “shrunken log2 fold change” value is -0.48.

As for RRIRWRPPRLPRPRPRPFYHPRP, the “shrunken log2 fold change” value was -0.0855.

RRIRGRPPRLPRPRPRPFCRPRP: the “shrunken log2 fold change” value was 0.326.

As for RRIRERPPRLPRPRPRPEMWPRP, the “shrunken log2 fold change” value came to 0.452.

Turning to RRIRWRPPRLPRPRPRPTIIPRP, the “shrunken log2 fold change” value is -0.348.

For the sequence RRIRCRPPRLPRPRPRPHFNPRP, the “shrunken log2 fold change” value was -0.589.

Take RRIRSRPPRLPRPRPRPCFFPRP: the “shrunken log2 fold change” value was -0.248.

On to RRIRWRPPRLPRPRPRPCFIPRP, for which the “shrunken log2 fold change” value was -0.423.

With RRIRKRPPRLPRPRPRPKDHPRP, the “shrunken log2 fold change” value came to 0.308.

On to RRIRWRPPRLPRPRPRPYPWPRP, for which the “shrunken log2 fold change” value is -0.156.

RRIRIRPPRLPRPRPRPSVTPRP: the “shrunken log2 fold change” value is -0.781.

Turning to RRIRKRPPRLPRPRPRPMIHPRP, the “shrunken log2 fold change” value is -0.00347.

Consider RRIRKRPPRLPRPRPRPPDMPRP, for which the “shrunken log2 fold change” value stood at 0.469.

Consider RRIRTRPPRLPRPRPRPKHQPRP, for which the “shrunken log2 fold change” value was 0.219.

For the sequence RRIRKRPPRLPRPRPRPWQKPRP, the “shrunken log2 fold change” value was 0.121.

On to RRIRLRPPRLPRPRPRPKHIPRP, for which the “shrunken log2 fold change” value was -0.241.

For RRIRGRPPRLPRPRPRPWVCPRP, the “shrunken log2 fold change” value was found to be 0.0844.

As to RRIRWRPPRLPRPRPRPERSPRP, the “shrunken log2 fold change” value turned out to be 0.317.

As for RRIRGRPPRLPRPRPRPAKLPRP, the “shrunken log2 fold change” value worked out at 0.154.

With RRIRDRPPRLPRPRPRPSYFPRP, the “shrunken log2 fold change” value is -0.255.

Take RRIRDRPPRLPRPRPRPIITPRP: the “shrunken log2 fold change” value was -0.0771.

Consider RRIRDRPPRLPRPRPRPKKNPRP, for which the “shrunken log2 fold change” value was 0.125.

RRIRWRPPRLPRPRPRPQGCPRP: the “shrunken log2 fold change” value stood at 0.0267.

Regarding RRIRNRPPRLPRPRPRPGQHPRP, the “shrunken log2 fold change” value came to 0.128.

RRIRVRPPRLPRPRPRPWIIPRP: the “shrunken log2 fold change” value was -0.652.

For RRIRVRPPRLPRPRPRPANRPRP, the “shrunken log2 fold change” value is -0.179.

On to RRIRARPPRLPRPRPRPTPFPRP, for which the “shrunken log2 fold change” value stood at 0.609.

On to RRIRLRPPRLPRPRPRPEIDPRP, for which the “shrunken log2 fold change” value is -0.0103.

As to RRIRLRPPRLPRPRPRPEPVPRP, the “shrunken log2 fold change” value amounted to 2.62.

With RRIRWRPPRLPRPRPRPFVPPRP, the “shrunken log2 fold change” value was -0.266.

For the sequence RRIRRRPPRLPRPRPRPHEDPRP, the “shrunken log2 fold change” value is 0.0653.

For the sequence RRIRPRPPRLPRPRPRPVWLPRP, the “shrunken log2 fold change” value amounted to 0.577.

Take RRIRQRPPRLPRPRPRPHNMPRP: the “shrunken log2 fold change” value is -0.283.

RRIRTRPPRLPRPRPRPPHVPRP: the “shrunken log2 fold change” value was determined as 0.307.

As to RRIRYRPPRLPRPRPRPPEKPRP, the “shrunken log2 fold change” value was found to be 0.274.

For the sequence RRIRNRPPRLPRPRPRPFDLPRP, the “shrunken log2 fold change” value was -0.176.

RRIRLRPPRLPRPRPRPRWAPRP: the “shrunken log2 fold change” value worked out at 0.145.

For RRIRMRPPRLPRPRPRPKKEPRP, the “shrunken log2 fold change” value is -0.0374.

As for RRIRMRPPRLPRPRPRPETEPRP, the “shrunken log2 fold change” value stood at 3.69.

As for RRIRPRPPRLPRPRPRPELCPRP, the “shrunken log2 fold change” value was 0.277.

Regarding RRIRPRPPRLPRPRPRPDPMPRP, the “shrunken log2 fold change” value came to 0.4.

For RRIRIRPPRLPRPRPRPHSRPRP, the “shrunken log2 fold change” value is -0.197.

RRIRYRPPRLPRPRPRPREDPRP: the “shrunken log2 fold change” value was -0.126.

Take RRIRNRPPRLPRPRPRPFITPRP: the “shrunken log2 fold change” value is -0.783.

On to RRIRCRPPRLPRPRPRPVILPRP, for which the “shrunken log2 fold change” value is -0.799.

For the sequence RRIRERPPRLPRPRPRPWLNPRP, the “shrunken log2 fold change” value is -0.00136.

As for RRIRQRPPRLPRPRPRPPWYPRP, the “shrunken log2 fold change” value is -0.226.

For the sequence RRIRLRPPRLPRPRPRPSPEPRP, the “shrunken log2 fold change” value worked out at 0.00229.

RRIRERPPRLPRPRPRPRWKPRP: the “shrunken log2 fold change” value is -0.0289.

Consider RRIRWRPPRLPRPRPRPDVTPRP, for which the “shrunken log2 fold change” value was 0.0084.

Take RRIRYRPPRLPRPRPRPLWMPRP: the “shrunken log2 fold change” value was -0.63.

In the case of RRIRFRPPRLPRPRPRPQYEPRP, the “shrunken log2 fold change” value is 0.0625.

RRIRWRPPRLPRPRPRPHWHPRP: the “shrunken log2 fold change” value is -0.0347.

Regarding RRIRCRPPRLPRPRPRPQLTPRP, the “shrunken log2 fold change” value was -0.147.

RRIRVRPPRLPRPRPRPTFMPRP: the “shrunken log2 fold change” value was -0.0669.

As to RRIRIRPPRLPRPRPRPDNIPRP, the “shrunken log2 fold change” value is -0.116.

On to RRIRCRPPRLPRPRPRPFVKPRP, for which the “shrunken log2 fold change” value is -0.4.

As for RRIRTRPPRLPRPRPRPDSCPRP, the “shrunken log2 fold change” value was -0.311.

As to RRIRIRPPRLPRPRPRPWIEPRP, the “shrunken log2 fold change” value is -0.186.

In the case of RRIRERPPRLPRPRPRPQDPPRP, the “shrunken log2 fold change” value was -0.232.

As to RRIRFRPPRLPRPRPRPTYVPRP, the “shrunken log2 fold change” value is -0.137.

With RRIRYRPPRLPRPRPRPYYDPRP, the “shrunken log2 fold change” value was -0.15.

Turning to RRIRFRPPRLPRPRPRPLDCPRP, the “shrunken log2 fold change” value was -0.112.

Consider RRIRRRPPRLPRPRPRPPPVPRP, for which the “shrunken log2 fold change” value turned out to be 0.931.

Take RRIRARPPRLPRPRPRPGCTPRP: the “shrunken log2 fold change” value amounted to 0.552.

As for RRIRGRPPRLPRPRPRPLMIPRP, the “shrunken log2 fold change” value was 0.139.

For the sequence RRIRKRPPRLPRPRPRPKNDPRP, the “shrunken log2 fold change” value stood at 0.186.

As to RRIRGRPPRLPRPRPRPGVGPRP, the “shrunken log2 fold change” value turned out to be 1.11.

In the case of RRIRDRPPRLPRPRPRPDNWPRP, the “shrunken log2 fold change” value was -0.232.

As to RRIRFRPPRLPRPRPRPRTVPRP, the “shrunken log2 fold change” value came to 0.086.

Turning to RRIRGRPPRLPRPRPRPCHQPRP, the “shrunken log2 fold change” value is -0.0488.

Turning to RRIRNRPPRLPRPRPRPELKPRP, the “shrunken log2 fold change” value turned out to be 0.00533.

For RRIRPRPPRLPRPRPRPYVPPRP, the “shrunken log2 fold change” value is -0.0652.

RRIRHRPPRLPRPRPRPDIWPRP: the “shrunken log2 fold change” value was -0.11.

For RRIRNRPPRLPRPRPRPIHYPRP, the “shrunken log2 fold change” value was -0.285.

Consider RRIRPRPPRLPRPRPRPMYFPRP, for which the “shrunken log2 fold change” value is -0.0431.

For the sequence RRIRVRPPRLPRPRPRPWGGPRP, the “shrunken log2 fold change” value came to 0.307.

With RRIRYRPPRLPRPRPRPSAQPRP, the “shrunken log2 fold change” value is -0.17.

With RRIRSRPPRLPRPRPRPLNFPRP, the “shrunken log2 fold change” value was -0.305.

For the sequence RRIRARPPRLPRPRPRPAPFPRP, the “shrunken log2 fold change” value was 0.392.

In the case of RRIRRRPPRLPRPRPRPHTDPRP, the “shrunken log2 fold change” value was -0.215.

For RRIRTRPPRLPRPRPRPIDNPRP, the “shrunken log2 fold change” value is -0.51.

In the case of RRIRPRPPRLPRPRPRPHLIPRP, the “shrunken log2 fold change” value was -0.287.

Consider RRIRTRPPRLPRPRPRPQEVPRP, for which the “shrunken log2 fold change” value is -0.0102.

With RRIRDRPPRLPRPRPRPLMHPRP, the “shrunken log2 fold change” value is 0.164.
